Here are results for one protein from PMC3618186 (2013).

This data set deals with the molecule itself. Nature of the data set: sedimentation equilibrium AUC.

B1: p150Glued CC1 CC1 (protein)
chain: SKEEEGLRAQVRDLEEKLETLRLKRAEDKAKLKELEKHKIQLEQVQEWKSKMQEQQADLQRRLKEARKEAKEALEAKERYMEEMADTADAIEMATLDKEMAEERAESLQQEVEALKERVDELTTDLEILKAEIEEKGSDGAASSYQLKQLEEQNARLKDALVRMRDLSSSEKQEHVKLQKLMEKKNQELEVVRQQRERLQEELSQAESTIDELKEQVDAALGAEEMVEMLTDRNLNLEEKVRELRETVGDLEAMNEMNDELQENARETELELREQLDMAGARVREAQKRVEAAQETVADYQQTIKKYRQLTAHLQDVNRELTNQQEASVERQQQ
Regarding B1, the Kd – broadly, a measure of binding affinity in units of concentration – is below 1 nM.
